Where a chain is given by its changes, count along the chain named.
B1: Fab 009 (Fab, V domains shown)
VH: not shown
VL: DIVMTQSPDSLAVSLGERATINCRASDSVDLFGRSYMHWYQQKPGQPPKLLIYAASNPESGVPDRFSGSGSGTDFTLTISSLQAEDVAVYYCQQIIDDPWTFGQGTKVEIK
B2: Fab 007 (Fab, V domains shown)
VH: not shown
VL: B1 VL with D27Q, R34K
B3: Fab 025 (Fab, V domains shown)
VH: not shown
VL: B1 VL with D27Q, R34K
B4: Fab 010 (Fab, V domains shown)
VH: not shown
VL: B1 VL
B5: Fab 008 (Fab, V domains shown)
VH: not shown
VL: B1 VL with R34K
B6: Fab 015 (Fab, V domains shown)
VH: not shown
VL: B1 VL with D27Q, L31F, R34T
B7: Fab 024 (Fab, V domains shown)
VH: not shown
VL: B1 VL with R34T
B8: Fab 011 (Fab, V domains shown)
VH: not shown
VL: B1 VL with R34Q
B9: Fab 022 (Fab, V domains shown)
VH: not shown
VL: B1 VL with D27Q, R34T
B10: Fab 026 (Fab, V domains shown)
VH: not shown
VL: B1 VL with L31F, R34K
B11: Fab 029 (Fab, V domains shown)
VH: not shown
VL: B1 VL with L31Y, R34V
B12: Fab 032 (Fab, V domains shown)
VH: not shown
VL: B1 VL with L31Y
B13: Fab 013 (Fab, V domains shown)
VH: not shown
VL: B1 VL with R34Q
B14: Fab 028 (Fab, V domains shown)
VH: not shown
VL: B1 VL with R34V, D97E
B15: Fab 014 (Fab, V domains shown)
VH: not shown
VL: B1 VL with R34V
B16: Fab 017 (Fab, V domains shown)
VH: not shown
VL: B1 VL with L31Y, R34Q
B17: Fab 030 (Fab, V domains shown)
VH: not shown
VL: B1 VL with D27Q, L31Y, F32L, R34K
B18: Fab 016 (Fab, V domains shown)
VH: not shown
VL: B1 VL with D27Q, L31Y, R34V
B19: Fab 012 (Fab, V domains shown)
VH: not shown
VL: B1 VL with D27Q, R34K
B20: Fab 019 (Fab, V domains shown)
VH: not shown
VL: B1 VL with R34Q
B21: Fab 018 (Fab, V domains shown)
VH: not shown
VL: B1 VL with R34Q, D97E
B22: Fab A10 (Fab, V domains shown)
VH: not shown
VL: B1 VL with D27Q, F32L, R34G, D97E

target: T1, soluble, extracellular domain of recombinantly expressed RSV F protein (human RSV); assay: SPR (Biacore), Fab over captured biotinylated RSV-F;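 for Kd: purified Fabs injected at a single concentration, reference surface subtracted, rate constants from a one-to-one binding model fit, Kd computed as koff divided by kon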;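 for koff: purified Fabs injected at a single concentration, reference surface subtracted, rate constants from a one-to-one binding model fit, Kd computed as koff divided by kon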;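 for kon: purified Fabs injected at a single concentration, reference surface subtracted, rate constants from a one-to-one binding model fit, Kd computed as koff divided by kon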
T1 construct: extracellular domain; also called recombinant RSV F protein; recombinant RSV-F
T1 sequence (P12568 26-109, chain 1 of 2): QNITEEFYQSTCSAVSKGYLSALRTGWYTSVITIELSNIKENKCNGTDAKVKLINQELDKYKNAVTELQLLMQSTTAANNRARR
T1 sequence (P12568 137-524, chain 2 of 2): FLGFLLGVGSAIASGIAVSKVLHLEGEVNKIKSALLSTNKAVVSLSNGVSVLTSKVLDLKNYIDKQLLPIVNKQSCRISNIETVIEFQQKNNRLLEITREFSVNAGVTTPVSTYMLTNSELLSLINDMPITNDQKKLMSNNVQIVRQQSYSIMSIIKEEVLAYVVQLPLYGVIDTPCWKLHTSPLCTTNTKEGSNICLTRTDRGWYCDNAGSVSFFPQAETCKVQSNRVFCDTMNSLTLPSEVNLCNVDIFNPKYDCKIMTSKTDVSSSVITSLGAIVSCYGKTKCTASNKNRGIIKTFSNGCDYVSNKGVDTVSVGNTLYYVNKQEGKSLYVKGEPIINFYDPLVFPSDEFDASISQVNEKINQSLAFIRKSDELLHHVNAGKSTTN

With B1 the “fold decrease in binding dissociation constant (Kd) relative to A7” value was about 4 fold.

target: RSV F protein on human RSV virus (Long strain) (human RSV, Long strain, UniProt P12568 26-574); assay: cell-based or functional assay

Going from B2 to B3, the “Viral Neut (fold increase over wild-type B23 Fab)” value rises from 5 fold to 20 fold.

Compared with B4, B5 is lower in “Viral Neut (fold increase over wild-type B23 Fab)” value: 18 fold for the first, 15 fold for the second.

First: B6
Second: B7
The “Viral Neut (fold increase over wild-type B23 Fab)” value of the first is lower: 8 fold for the first, over 23 fold for the second.

Going from B8 to B9, the “Viral Neut (fold increase over wild-type B23 Fab)” value falls from over 23 fold to 22 fold.

Going from B10 to B11, the “Viral Neut (fold increase over wild-type B23 Fab)” value rises from 20 fold to over 23 fold.

First: B12
Second: B13
The “Viral Neut (fold increase over wild-type B23 Fab)” value of the first is higher: over 23 fold for the first, 13 fold for the second.

Compared with B14, B15 is lower in “Viral Neut (fold increase over wild-type B23 Fab)” value: 18 fold for the first, under 1 fold for the second.

Compared with B16, B17 is lower in “Viral Neut (fold increase over wild-type B23 Fab)” value: over 23 fold for the first, 18 fold for the second.

Going from B18 to B19, the “Viral Neut (fold increase over wild-type B23 Fab)” value rises from 10 fold to 11 fold.

Compared with B20, B1 is lower in “Viral Neut (fold increase over wild-type B23 Fab)” value: over 23 fold for the first, 19 fold for the second.

target: T1, soluble, extracellular domain of …; assay: SPR (Biacore), Fab over captured biotinylated RSV-F; remark: another data set of the same source

In order of rising Kd:
1. B7  0.002 nM
2. B19  0.005 nM
3. B8  0.007 nM
4. B11  0.009 nM
5. B20  0.0135 nM
6. B6  0.016 nM
7. B3  0.018 nM
8. B14  0.02 nM
9. B9  0.025 nM
10. B10  0.028 nM
11. B1  0.028 nM
12. B12  0.039 nM
13. B4  0.047 nM
14. B16  0.054 nM
15. B21  0.055 nM
16. B2  0.058 nM
17. B13  0.058 nM
18. B17  0.073 nM
19. B18  0.09 nM
20. B5  0.133 nM
21. B22  0.175 nM
22. B15  0.184 nM

In order of rising koff:
1. B7  7e-06 s⁻¹
2. B19  1.5e-05 s⁻¹
3. B8  2.7e-05 s⁻¹
4. B12  3.6e-05 s⁻¹
5. B11  4e-05 s⁻¹
6. B20  4.5e-05 s⁻¹
7. B3  4.6e-05 s⁻¹
8. B9  5.4e-05 s⁻¹
9. B10  6.6e-05 s⁻¹
10. B15  7e-05 s⁻¹
11. B17  7.5e-05 s⁻¹
12. B6  7.8e-05 s⁻¹
13. B1  7.9e-05 s⁻¹
14. B16  8.1e-05 s⁻¹
15. B14  8.6e-05 s⁻¹
16. B21  8.8e-05 s⁻¹
17. B18  9e-05 s⁻¹
18. B22  0.000147 s⁻¹
19. B4  0.00018 s⁻¹
20. B2  0.00019 s⁻¹
21. B13  0.00021 s⁻¹
22. B5  0.00028 s⁻¹

In order of rising kon:
1. B15  380000 M⁻¹ s⁻¹
2. B22  850000 M⁻¹ s⁻¹
3. B12  930000 M⁻¹ s⁻¹
4. B18  1e+06 M⁻¹ s⁻¹
5. B17  1.03e+06 M⁻¹ s⁻¹
6. B16  1.5e+06 M⁻¹ s⁻¹
7. B21  1.6e+06 M⁻¹ s⁻¹
8. B5  2.1e+06 M⁻¹ s⁻¹
9. B9  2.16e+06 M⁻¹ s⁻¹
10. B10  2.39e+06 M⁻¹ s⁻¹
11. B3  2.52e+06 M⁻¹ s⁻¹
12. B1  2.8e+06 M⁻¹ s⁻¹
13. B19  3e+06 M⁻¹ s⁻¹
14. B7  3.14e+06 M⁻¹ s⁻¹
15. B2  3.3e+06 M⁻¹ s⁻¹
16. B20  3.34e+06 M⁻¹ s⁻¹
17. B13  3.6e+06 M⁻¹ s⁻¹
18. B4  3.8e+06 M⁻¹ s⁻¹
19. B8  4e+06 M⁻¹ s⁻¹
20. B14  4.2e+06 M⁻¹ s⁻¹
21. B11  4.58e+06 M⁻¹ s⁻¹
22. B6  5e+06 M⁻¹ s⁻¹

Source: patent publication US20060159695A1 (published 2006)
